Measured values published in the supplement of paper PMC12667976.

B1: library; numbered along this chain (parent)
chain: MATDAALRRLLRLHRTEIAVAVDSAFPLLHALADHDVVPEDKFQETLHLKEKEGCPQAFHALLSWLLTQDSTAILDFWRVLFKDYNLERYGRLQPILDSFPKDVDLSQPRKGRKPPAVPKALVPPPRLPTKRKASEEARAAAPAALTPRGTASPGSQLKAKPPKKPESSAEQQRLPLGNGIQTMSASVQRAVAMSSGDVPGARGAVEGILIQQVFESGGSKKCIQVGGEFYTPSKFEDSGSGKNKARSSSGPKPLVRAKGAQGAAPGGGEARLGQQGSVPAPLALPSDPQLHQKNEDECAVCRDGGELICCDGCPRAFHLACLSPPLREIPSGTWRCSSCLQATVQEVQPRAEEPRPQEPPVETPLPPGLRSAGEEVRGPPGEPLAGMDTTLVYKHLPAPPSAAPLPGLDSSALHPLLCVGPEGQQNLAPGARCGVCGDGTDVLRCTHCAAAFHWRCHFPAGTSRPGTGLRCRSCSGDVTPAPVEGVLAPSPARLAPGPAKDDTASHEPALHRDDLESLLSEHTFDGILQWAIQSMARPAAPFPS

Variants of: B1
Experiment: AIRE transcriptional activation functional score (insulin promoter-GFP; nonsense median 0, synonymous median 1) (normalised score); higher = higher AIRE activity (more reporter activation)
Conditions: with insulin promoter-GFP reporter in HEK293
Procedure, shortened: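 Functional scores come from comparing select with non-select enrichment of each variant and subtracting wild type. Codon-optimized AIRE NNN-codon libraries across three regions were integrated via Bxb1 recombinase into HEK293 landing-pad cells with an insulin core promoter-GFP reporter, and integrants sorted at day 7 were expanded 7 days before top 10% GFP and unselected populations were tile-sequenced. Variants needed 10 counts per million in non-select, and values were rescaled to nonsense median 0 and synonymous median 1 before averaging over biological replicates.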

AIRE transcriptional activation functional score: each site, then its substitutions
P481: R 0.956 | E 0.44 | C 0.688 | S 0.91 | L 0.8 | H 1.14 | W 1.39 | A 0.586 | D 1.21 | T 0.704 | F 1.16 | Q 0.501 | Y 1.37 | I 0.238 | V 1.38 | M 1.29 | G 0.747 | K 1.02 | N 0.00715
E485: M -0.286 | K 0.777 | V 0.951 | Y 0.948 | R 0.652 | N 0.645 | C 1.24 | A 0.466 | H 0.537 | D 0.981 | T 1.02 | S 0.955 | W 1.08 | P 1.25 | F 1.1 | G 1.05 | Q 0.397 | I 1.1 | L 1.11
S476: M 0.943 | W 1.09 | G 0.844 | D 0.455 | H 0.529 | F 1.21 | R 0.828 | C 0.608 | E 0.948 | P 1.02 | V 0.878 | A 0.905 | I 1.23 | Y 1.19 | K 0.603 | L 0.829 | Q 0.151 | T 1.2
C472: E 0.216 | P -0.298 | S -0.0588 | Y 0.117 | G 0.0511 | D -0.251 | M -0.0949 | W -0.112 | T -0.165 | Q -0.424 | I 0.154 | L -0.0415 | V 0.0438 | H -0.28 | A -0.164 | F 0.226 | R 0.0742 | N 0.0317 | K 0.158
S474: N 0.296 | P 1.17 | A 0.936 | T 0.317 | R 0.817 | M 0.192 | F 1.12 | K 0.466 | G 0.801 | E 1.16 | H 0.593 | D 1.33 | Y 0.736 | Q 1.02 | L 0.185 | I 0.0981 | C 0.824 | V 0.167
V487: Y 1.13 | N 0.296 | R 0.785 | K 0.821 | F 0.765 | A 1.02 | G 0.931 | H 0.858 | P 1.04 | E -0.349 | I 1.06 | Q 0.492 | T 1.5 | W 0.552 | M 0.568 | C 0.67 | S 0.901 | L 1.03
P483: K 0.675 | I 1.6 | H 1.13 | V 1.03 | G 1.89 | F 1.33 | C 1.44 | T 1.46 | M 1.36 | Q 0.926 | S 0.811 | A 0.722 | L 0.603 | N 0.937 | R 1.03
G477: P 1.46 | S 0.661 | D 0.678 | F 1.36 | Q 0.0223 | H 1.41 | E 0.302 | V 1.13 | C 0.926 | Y 0.642 | M 1.01 | L 0.273 | R 0.787 | N 1.12 | I 1.01 | T -0.261 | A 0.739 | K 1.11 | W 0.745
A482: E 1.28 | K 1.11 | V 1.23 | L 1.44 | Y 1.42 | P 1.92 | N 1.2 | F -0.132 | Q 0.773 | D 1.42 | R 0.557 | S 1.34 | I 1.32 | T 0.312 | G 1.31
D478: V 0.89 | E 1.09 | C 0.947 | H 0.829 | I 1.06 | K 0.926 | N 0.709 | Q 0.891 | T 0.678 | G 0.841 | L 0.949 | F 0.799 | M 0.485 | R 0.412 | W 0.544 | Y 0.902 | A 0.808 | P 0.801 | S 0.816
C475: A 0.119 | V 0.0724 | D -0.0916 | S 0.0047 | Y 0.0941 | G 0.304 | M -0.469 | P -0.156 | T 0.102 | Q 0.568 | L 0.0763 | H 0.16 | K -0.353 | E -0.103 | I 0.147 | N 0.255 | W -0.0091 | F 0.14 | R -0.148
R473: G 0.848 | M 0.947 | D 0.836 | T 1.06 | L 1.29 | A 0.794 | F 0.997 | V 0.334 | P 0.607 | K 0.66 | Y 1.64 | Q 0.968 | C 0.937 | H -0.49 | I 0.852 | N 0.99 | S 0.755 | W 0.97 | E 1.16
A489: E 0.655 | Q 0.0401 | W 0.893 | H 1.18 | L 1.06 | I 0.859 | M 1.23 | F 1.16 | S 0.687 | Y 1.22 | P 1.01 | G 0.932 | K 0.705 | C 1.19 | D 1.17 | T 1.44 | R 0.51 | V 0.959
P490: A 0.812
G486: P 1 | A 0.707 | D 0.692 | C 0.625 | N 0.995 | E 0.566 | Y 0.737 | S 1.16 | V 1.45 | I 1.37 | Q 0.85 | W 1.49 | T 0.154 | L 1.03 | K 0.91 | R 0.926 | H 1.27 | F 1.46
T480: K 0.954 | D 0.65 | C 1.12 | S 0.786 | N 0.784 | G 1.11 | R 0.837 | P 1.05 | Q 0.203 | V 1.45 | F 1.32 | Y 0.806 | L 1 | W 1.13 | H 1.18 | I 0.515 | A 0.564
R471: I 1.05 | Q 0.5 | P 0.89 | L 0.799 | Y 1.13 | V 0.217 | M 1.36 | T 0.747 | S 0.674 | K 0.921 | W 1.12
V479: D 0.363 | H 1.16 | W 1.09 | K 0.833 | Q 1.24 | L 0.811 | M 1.1 | E 1.39 | N 1.08 | R 0.978 | F 0.98 | P 0.967 | I 0.977 | S 0.925 | T 0.956 | G 0.838 | C 1.15 | A 0.734 | Y 0.896
V484: A 0.726 | T 1.04 | D 0.164 | I 1.45 | S 0.906 | R 0.893 | F 0.8 | L 0.509 | G 1.18 | Y 0.975 | W 1.18 | C 0.29 | E 0.615 | Q 1.72
L488: S 0.854 | H 0.298 | M 0.976 | A 1.27 | D 0.449 | R 0.722 | W 1.32 | V 1.09 | G 1.03 | F 1.13 | C 0.742 | Q 0.827 | N 0.961 | P 1.04 | K 1.07 | E 0.182 | T 1.18 | Y 1.31 | I 0.826
